In US20090233266A1:

Target: C-terminal domain of the NS2 protein of hepatitis C virus, amino acids 94 to 217 of NS2 from HCV genotype 1a strain H77 (residues 903 to 1026 of the HCV polyprotein) (hepatitis C virus genotype 1a strain H77) (UniProt P27958)
Experiment: X-ray crystal structure

Question: “C-terminal domain of the NS2 protein of hepatitis C virus, amino acids 94 to 217 of NS2 from HCV genotype 1a strain H77 (residues 903 to 1026 of the HCV polyprotein) (from UniProt P27958) (enzyme)” was tested. Which total buried surface area did it give?
Answer: 1100 Å^2
